# According to patent US10919943B2, “Mutant proteins enabling agrochemical control of plant gene expression” (The Regents of the University of California, priority 2016, dated 2021):
# T1: PYR1 (Arabidopsis thaliana, UniProt O49686)
# T1 construct: expressed in transfected cells; host or cells: S. cerevisiae strain Y190
# T1 sequence (O49686 1-191): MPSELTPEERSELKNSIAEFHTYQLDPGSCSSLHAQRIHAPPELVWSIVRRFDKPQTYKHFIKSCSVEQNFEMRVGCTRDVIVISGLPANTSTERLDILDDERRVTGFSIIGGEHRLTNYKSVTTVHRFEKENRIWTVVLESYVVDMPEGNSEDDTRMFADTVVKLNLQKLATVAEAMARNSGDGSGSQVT
# Target: T1, PYR1
# Assay: Yeast two hybrid of pACT-HAB1 site saturation mutants with pBD-PYR1 on 10 μM ABA, β-galactosidase staining
# Format: cell-based
# Parameters: key: x: Mutations in HAB1 that disrupt HAB1 interaction with PYR1
# Settings: S. cerevisiae Y190, 10 μM ABA; dead = lack of detectable staining in comparison to wild type control
# Excerpt: To systematically define mutations in HAB1 that disrupt its binding to PYR1, we used site saturation mutagenesis to create a collection all possible single amino acid substitutions in 20 residues lining the PYR1 binding interface, and then assayed the ability of each mutant to bind PYR1 using the yeast two hybrid assay described above. We targeted the following residues for mutagenesis: R199, 5200, E201, E203, H245, G246, G247, S322, E323, T324, K381, I383, Q384, W385, Q386, R389, F391, G392, V393, and Y404. To create the collection of mutations, mutagenic “NNK” site directed mutagenesis primers were synthesized for each of the 20 positions and the primers used in QuickChange site-directed mutagenesis reactions using a previously described pACT-HAB1 template (Park et al., 2009). We note that this clone uses a HAB1 cDNA lacking its three N-terminal amino acids. The reaction products were digested with DpnI, and transformed into competent Escherichia coli DH5α cells and plasmid DNA for 96 colonies per site was isolated using Bioneer AccuPrep® Plasmid Mini Extraction Kit (Alameda, Calif.) and sequenced to identify mutants. This process identified most of the 19 desired mutations per target site; the remaining mutations were constructed directly using specific mutagenic primers. To interrogate the effects of the mutations on PYR1-HAB1 interactions, the mutant clones were individually transformed into S. cerevisiae strain Y190 containing pBD-PYR1 (Park et al., 2009). Yeast transformants were selected for the presence of plasmids on selective SD (-Leu,-Trp) plates and then spotted onto SD (-Leu,-Trp) agar plates supplemented with 10 μM ABA. After incubating the test plates at 30° C. for two days, the colonies were lysed with chloroform and stained to reveal […] expression levels. “Dead” mutants were defined by lack of detectable staining in comparison to a wild type pBD-PYR1/pACT-HAB1 control. This screening effort defined 163 mutations that disrupt the ABA-induced PYR1/HAB1 interaction (Table 2).
row,Molecule,Mutations in HAB1 that disrupt HAB1 interaction with PYR1
1,"I383G: HAB1 mutant (protein, listed as Arabidopsis thaliana) MEEMTPAVAMTLSLAANTMCESSPVEITQLKNVTDAADLLSDSENQSFCNGGTECTMEDVSELEEVGEQDLLKTLSDTRSGSSNVFDEDDVLSVVEDNSAVISEGLLVVDAGSELSLSNTAMEIDNGRVLATAIIVGESSIEQVPTAEVLIAGVNQDTNTSEVVIRLPDENSNHLVKGRSVYELDCIPLWGTVSIQGNRSEMEDAFAVSPHFLKLPIKMLMGDHEGMSPSLTHLTGHFFGVYDGHGGHKVADYCRDRLHFALAEEIERIKDELCKRNTGEGRQVQWDKVFTSCFLTVDGEIEGKIGRAVVGSSDKVLEAVASETVGSTAVVALVCSSHIVVSNCGDSRAVLFRGKEAMPLSVDHKPDREDEYARIENAGGKVGQWQGARVFGVLAMSRSIGDRYLKPYVIPEPEVTFMPRSREDECLILASDGLWDVMNNQEVCEIARRRILMWHKKNGAPPLAERGKGIDPACQAAADYLSMLALQKGSKDNISIIVIDLKAQRKFKTRT",x
2,"I383D: HAB1 mutant (protein, UniProt Q9CAJ0 23-511, looked up, variant I383D) Protein phosphatase 2C 16: SPVEITQLKNVTDAADLLSDSENQSFCNGGTECTMEDVSELEEVGEQDLLKTLSDTRSGSSNVFDEDDVLSVVEDNSAVISEGLLVVDAGSELSLSNTAMEIDNGRVLATAIIVGESSIEQVPTAEVLIAGVNQDTNTSEVVIRLPDENSNHLVKGRSVYELDCIPLWGTVSIQGNRSEMEDAFAVSPHFLKLPIKMLMGDHEGMSPSLTHLTGHFFGVYDGHGGHKVADYCRDRLHFALAEEIERIKDELCKRNTGEGRQVQWDKVFTSCFLTVDGEIEGKIGRAVVGSSDKVLEAVASETVGSTAVVALVCSSHIVVSNCGDSRAVLFRGKEAMPLSVDHKPDREDEYARIENAGGKVDQWQGARVFGVLAMSRSIGDRYLKPYVIPEPEVTFMPRSREDECLILASDGLWDVMNNQEVCEIARRRILMWHKKNGAPPLAERGKGIDPACQAAADYLSMLALQKGSKDNISIIVIDLKAQRKFKTRT",x
3,"I383H: HAB1 mutant (protein, UniProt Q9CAJ0 23-511, looked up, variant I383H) Protein phosphatase 2C 16: SPVEITQLKNVTDAADLLSDSENQSFCNGGTECTMEDVSELEEVGEQDLLKTLSDTRSGSSNVFDEDDVLSVVEDNSAVISEGLLVVDAGSELSLSNTAMEIDNGRVLATAIIVGESSIEQVPTAEVLIAGVNQDTNTSEVVIRLPDENSNHLVKGRSVYELDCIPLWGTVSIQGNRSEMEDAFAVSPHFLKLPIKMLMGDHEGMSPSLTHLTGHFFGVYDGHGGHKVADYCRDRLHFALAEEIERIKDELCKRNTGEGRQVQWDKVFTSCFLTVDGEIEGKIGRAVVGSSDKVLEAVASETVGSTAVVALVCSSHIVVSNCGDSRAVLFRGKEAMPLSVDHKPDREDEYARIENAGGKVHQWQGARVFGVLAMSRSIGDRYLKPYVIPEPEVTFMPRSREDECLILASDGLWDVMNNQEVCEIARRRILMWHKKNGAPPLAERGKGIDPACQAAADYLSMLALQKGSKDNISIIVIDLKAQRKFKTRT",x
4,"I383E: HAB1 mutant (protein, UniProt Q9CAJ0 23-511, looked up, variant I383E) Protein phosphatase 2C 16: SPVEITQLKNVTDAADLLSDSENQSFCNGGTECTMEDVSELEEVGEQDLLKTLSDTRSGSSNVFDEDDVLSVVEDNSAVISEGLLVVDAGSELSLSNTAMEIDNGRVLATAIIVGESSIEQVPTAEVLIAGVNQDTNTSEVVIRLPDENSNHLVKGRSVYELDCIPLWGTVSIQGNRSEMEDAFAVSPHFLKLPIKMLMGDHEGMSPSLTHLTGHFFGVYDGHGGHKVADYCRDRLHFALAEEIERIKDELCKRNTGEGRQVQWDKVFTSCFLTVDGEIEGKIGRAVVGSSDKVLEAVASETVGSTAVVALVCSSHIVVSNCGDSRAVLFRGKEAMPLSVDHKPDREDEYARIENAGGKVEQWQGARVFGVLAMSRSIGDRYLKPYVIPEPEVTFMPRSREDECLILASDGLWDVMNNQEVCEIARRRILMWHKKNGAPPLAERGKGIDPACQAAADYLSMLALQKGSKDNISIIVIDLKAQRKFKTRT",x

# More lines, now with the values ahead:
row,Mutations in HAB1 that disrupt HAB1 interaction with PYR1,Molecule
1,x,"I383Y: HAB1 mutant (protein, UniProt Q9CAJ0 23-511, looked up, variant I383Y) Protein phosphatase 2C 16: SPVEITQLKNVTDAADLLSDSENQSFCNGGTECTMEDVSELEEVGEQDLLKTLSDTRSGSSNVFDEDDVLSVVEDNSAVISEGLLVVDAGSELSLSNTAMEIDNGRVLATAIIVGESSIEQVPTAEVLIAGVNQDTNTSEVVIRLPDENSNHLVKGRSVYELDCIPLWGTVSIQGNRSEMEDAFAVSPHFLKLPIKMLMGDHEGMSPSLTHLTGHFFGVYDGHGGHKVADYCRDRLHFALAEEIERIKDELCKRNTGEGRQVQWDKVFTSCFLTVDGEIEGKIGRAVVGSSDKVLEAVASETVGSTAVVALVCSSHIVVSNCGDSRAVLFRGKEAMPLSVDHKPDREDEYARIENAGGKVYQWQGARVFGVLAMSRSIGDRYLKPYVIPEPEVTFMPRSREDECLILASDGLWDVMNNQEVCEIARRRILMWHKKNGAPPLAERGKGIDPACQAAADYLSMLALQKGSKDNISIIVIDLKAQRKFKTRT"
2,x,"I383K: HAB1 mutant (protein, UniProt Q9CAJ0 23-511, looked up, variant I383K) Protein phosphatase 2C 16: SPVEITQLKNVTDAADLLSDSENQSFCNGGTECTMEDVSELEEVGEQDLLKTLSDTRSGSSNVFDEDDVLSVVEDNSAVISEGLLVVDAGSELSLSNTAMEIDNGRVLATAIIVGESSIEQVPTAEVLIAGVNQDTNTSEVVIRLPDENSNHLVKGRSVYELDCIPLWGTVSIQGNRSEMEDAFAVSPHFLKLPIKMLMGDHEGMSPSLTHLTGHFFGVYDGHGGHKVADYCRDRLHFALAEEIERIKDELCKRNTGEGRQVQWDKVFTSCFLTVDGEIEGKIGRAVVGSSDKVLEAVASETVGSTAVVALVCSSHIVVSNCGDSRAVLFRGKEAMPLSVDHKPDREDEYARIENAGGKVKQWQGARVFGVLAMSRSIGDRYLKPYVIPEPEVTFMPRSREDECLILASDGLWDVMNNQEVCEIARRRILMWHKKNGAPPLAERGKGIDPACQAAADYLSMLALQKGSKDNISIIVIDLKAQRKFKTRT"
3,x,"W385L: HAB1 mutant (protein, UniProt Q9CAJ0 23-511, looked up, variant W385L) Protein phosphatase 2C 16: SPVEITQLKNVTDAADLLSDSENQSFCNGGTECTMEDVSELEEVGEQDLLKTLSDTRSGSSNVFDEDDVLSVVEDNSAVISEGLLVVDAGSELSLSNTAMEIDNGRVLATAIIVGESSIEQVPTAEVLIAGVNQDTNTSEVVIRLPDENSNHLVKGRSVYELDCIPLWGTVSIQGNRSEMEDAFAVSPHFLKLPIKMLMGDHEGMSPSLTHLTGHFFGVYDGHGGHKVADYCRDRLHFALAEEIERIKDELCKRNTGEGRQVQWDKVFTSCFLTVDGEIEGKIGRAVVGSSDKVLEAVASETVGSTAVVALVCSSHIVVSNCGDSRAVLFRGKEAMPLSVDHKPDREDEYARIENAGGKVIQLQGARVFGVLAMSRSIGDRYLKPYVIPEPEVTFMPRSREDECLILASDGLWDVMNNQEVCEIARRRILMWHKKNGAPPLAERGKGIDPACQAAADYLSMLALQKGSKDNISIIVIDLKAQRKFKTRT"
4,x,"W385A: HAB1 mutant (protein, UniProt Q9CAJ0 23-511, looked up, variant W385A) Protein phosphatase 2C 16: SPVEITQLKNVTDAADLLSDSENQSFCNGGTECTMEDVSELEEVGEQDLLKTLSDTRSGSSNVFDEDDVLSVVEDNSAVISEGLLVVDAGSELSLSNTAMEIDNGRVLATAIIVGESSIEQVPTAEVLIAGVNQDTNTSEVVIRLPDENSNHLVKGRSVYELDCIPLWGTVSIQGNRSEMEDAFAVSPHFLKLPIKMLMGDHEGMSPSLTHLTGHFFGVYDGHGGHKVADYCRDRLHFALAEEIERIKDELCKRNTGEGRQVQWDKVFTSCFLTVDGEIEGKIGRAVVGSSDKVLEAVASETVGSTAVVALVCSSHIVVSNCGDSRAVLFRGKEAMPLSVDHKPDREDEYARIENAGGKVIQAQGARVFGVLAMSRSIGDRYLKPYVIPEPEVTFMPRSREDECLILASDGLWDVMNNQEVCEIARRRILMWHKKNGAPPLAERGKGIDPACQAAADYLSMLALQKGSKDNISIIVIDLKAQRKFKTRT"
